# From publication PMC8584621
# Assays:
# [1] = target: T1, SCO3932 (GntR-like, HutC subfamily) (Streptomyces coelicolor A3(2) M145) (UniProt Q9X9T6); assay: DMS footprinting; conditions: EMSA: 10 mM Tris-HCl pH 7.5, 50 mM KCl, 1 mM DTT, herring sperm DNA 100 ng, DTT/Tween20, 0.03 pmol probe in 16 uL, 20 min room temperature; footprint: same …
# T1 sequence: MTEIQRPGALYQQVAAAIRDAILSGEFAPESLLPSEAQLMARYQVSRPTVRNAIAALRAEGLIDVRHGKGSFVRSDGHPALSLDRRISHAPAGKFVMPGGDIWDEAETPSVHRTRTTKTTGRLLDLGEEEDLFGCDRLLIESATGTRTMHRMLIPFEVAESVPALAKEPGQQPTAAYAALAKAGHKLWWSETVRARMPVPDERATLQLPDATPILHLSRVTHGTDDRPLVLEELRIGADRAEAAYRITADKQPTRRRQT
# [2] = target: T1, SCO3932 (GntR-like, HutC subfamily) (Streptomyces coelicolor A3(2) M145); assay: DNase I footprinting; conditions: EMSA: 10 mM Tris-HCl pH 7.5, 50 mM KCl, 1 mM DTT, herring sperm DNA 100 ng, DTT/Tween20, 0.03 pmol probe in 16 uL, 20 min room temperature; footprint: same …
# [3] = system: SCO3932 (GntR-like, HutC subfamily) (Streptomyces coelicolor A3(2) M145); assay: EMSA; conditions: EMSA: 10 mM Tris-HCl pH 7.5, 50 mM KCl, 1 mM DTT, herring sperm DNA 100 ng, DTT/Tween20, 0.03 pmol probe in 16 uL, 20 min room temperature; footprint: same …
# [4] = system: SCO3932 (GntR-like, HutC subfamily) (Streptomyces coelicolor A3(2) M145); assay: DNase I footprinting; conditions: protein concentration giving protection, EMSA: 10 mM Tris-HCl pH 7.5, 50 mM KCl, 1 mM DTT, herring sperm DNA 100 ng, DTT/Tween20, 0.03 pmol probe in 16 uL, 20 min room temperature, footprint: same …
substance,measurement,setting,value
AAGGATCCGAATGGACTGCATTTCTGTGGCCTCCCTGGCCAATCCAGGACGTCCAACCTATTCGGACGTCACTTGTCCTTACGAGTGACAAGCTTGGAGCACTGTACGGCGAGAGCGCAACTACTTATGCTGACGAGTGATGTCGCGCGTGCGACGTGCCTACGACACCAGACCGGAGATGCCGAGATGACGGAGATCCAGAATTCTT (double strand) [p3932/3933 footprint probe],binding,[1],binds
same,binding,[2],100 nM
p3932/3933 EMSA probe,binding,[3],1.9 nM
p3932/3933 footprint probe,binding,"[4]; sites K1, K2",100 nM
pactII-orf4 EMSA probe,binding,[3],9.4 nM
pactII-orf4 footprint probe,binding,"[4]; sites A1, A2",800 nM
pcpkA/D EMSA probe,binding,[3],9.4 nM
pcpkD footprint probe,binding,[4]; site D,800 nM
